Reference: patent US20050037967A1 (RESEARCH DEVELOPMENT FOUNDATION, published 2005)

Experiments:
[1] = molecular target: human FLT-1 receptor (VEGFR-1) on PAE/FLT-1 cells (human) (UniProt P17948); assay: cell-based or functional assay
[2] = molecular target: Flt-1 on osteoclast precursor cells (RAW 264.7 cells and mouse bone marrow-derived monocytes) (mouse) (UniProt P35969); assay: cell-based or functional assay
[3] = molecular target: KDR/Flk-1 on adult bovine aortic arch-derived endothelial cells (ABAE) (bovine); assay: cell-based or functional assay
FLK-1 on PAE/FLK-1 cells = assay: cell-based or functional assay
[4] = molecular target: human kinase domain receptor (KDR, VEGFR-2) on cells (human) (UniProt P35968); assay: cell-based or functional assay
[5] = molecular target: Flk-1 on murine brain endothelioma bEnd.3 cells (mouse) (UniProt P35918); assay: cell-based or functional assay
[6] = molecular target: T1, soluble mouse Flk-1, purified and biotinylated, expressed in Sf9 cells (mouse, UniProt P35918 20-762); assay: ELISA, biotinylated soluble mouse Flk-1 on NeutrAvidin-coated plates; detection with 2C3
T1 construct: Captured on NeutrAvidin-coated plates; Only 'soluble' is said of the construct; also called biotinylated mouse flk-1 receptor; flk-1 receptor
T1 sequence (P35918 20-762 limits assumed): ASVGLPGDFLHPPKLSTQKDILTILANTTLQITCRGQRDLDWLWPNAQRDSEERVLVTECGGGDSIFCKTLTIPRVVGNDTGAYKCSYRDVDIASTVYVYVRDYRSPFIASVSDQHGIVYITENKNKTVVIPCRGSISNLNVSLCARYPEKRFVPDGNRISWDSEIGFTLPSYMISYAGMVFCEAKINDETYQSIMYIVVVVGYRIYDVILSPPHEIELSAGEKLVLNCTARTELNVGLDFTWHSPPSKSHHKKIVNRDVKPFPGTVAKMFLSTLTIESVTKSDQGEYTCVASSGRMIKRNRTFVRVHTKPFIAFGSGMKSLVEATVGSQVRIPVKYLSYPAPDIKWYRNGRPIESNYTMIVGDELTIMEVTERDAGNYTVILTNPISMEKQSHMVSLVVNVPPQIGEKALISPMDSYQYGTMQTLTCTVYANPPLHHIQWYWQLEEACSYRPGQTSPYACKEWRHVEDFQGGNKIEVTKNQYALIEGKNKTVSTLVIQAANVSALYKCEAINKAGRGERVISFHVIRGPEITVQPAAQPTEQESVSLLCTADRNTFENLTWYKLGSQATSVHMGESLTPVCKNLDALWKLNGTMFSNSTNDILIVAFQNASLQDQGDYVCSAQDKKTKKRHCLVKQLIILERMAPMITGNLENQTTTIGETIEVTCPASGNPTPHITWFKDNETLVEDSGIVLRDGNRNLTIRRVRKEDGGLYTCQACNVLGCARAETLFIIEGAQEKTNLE

human FLT-1 receptor (VEGFR-1) on PAE/FLT-1 cells (human), sequence (P17948 27-1338): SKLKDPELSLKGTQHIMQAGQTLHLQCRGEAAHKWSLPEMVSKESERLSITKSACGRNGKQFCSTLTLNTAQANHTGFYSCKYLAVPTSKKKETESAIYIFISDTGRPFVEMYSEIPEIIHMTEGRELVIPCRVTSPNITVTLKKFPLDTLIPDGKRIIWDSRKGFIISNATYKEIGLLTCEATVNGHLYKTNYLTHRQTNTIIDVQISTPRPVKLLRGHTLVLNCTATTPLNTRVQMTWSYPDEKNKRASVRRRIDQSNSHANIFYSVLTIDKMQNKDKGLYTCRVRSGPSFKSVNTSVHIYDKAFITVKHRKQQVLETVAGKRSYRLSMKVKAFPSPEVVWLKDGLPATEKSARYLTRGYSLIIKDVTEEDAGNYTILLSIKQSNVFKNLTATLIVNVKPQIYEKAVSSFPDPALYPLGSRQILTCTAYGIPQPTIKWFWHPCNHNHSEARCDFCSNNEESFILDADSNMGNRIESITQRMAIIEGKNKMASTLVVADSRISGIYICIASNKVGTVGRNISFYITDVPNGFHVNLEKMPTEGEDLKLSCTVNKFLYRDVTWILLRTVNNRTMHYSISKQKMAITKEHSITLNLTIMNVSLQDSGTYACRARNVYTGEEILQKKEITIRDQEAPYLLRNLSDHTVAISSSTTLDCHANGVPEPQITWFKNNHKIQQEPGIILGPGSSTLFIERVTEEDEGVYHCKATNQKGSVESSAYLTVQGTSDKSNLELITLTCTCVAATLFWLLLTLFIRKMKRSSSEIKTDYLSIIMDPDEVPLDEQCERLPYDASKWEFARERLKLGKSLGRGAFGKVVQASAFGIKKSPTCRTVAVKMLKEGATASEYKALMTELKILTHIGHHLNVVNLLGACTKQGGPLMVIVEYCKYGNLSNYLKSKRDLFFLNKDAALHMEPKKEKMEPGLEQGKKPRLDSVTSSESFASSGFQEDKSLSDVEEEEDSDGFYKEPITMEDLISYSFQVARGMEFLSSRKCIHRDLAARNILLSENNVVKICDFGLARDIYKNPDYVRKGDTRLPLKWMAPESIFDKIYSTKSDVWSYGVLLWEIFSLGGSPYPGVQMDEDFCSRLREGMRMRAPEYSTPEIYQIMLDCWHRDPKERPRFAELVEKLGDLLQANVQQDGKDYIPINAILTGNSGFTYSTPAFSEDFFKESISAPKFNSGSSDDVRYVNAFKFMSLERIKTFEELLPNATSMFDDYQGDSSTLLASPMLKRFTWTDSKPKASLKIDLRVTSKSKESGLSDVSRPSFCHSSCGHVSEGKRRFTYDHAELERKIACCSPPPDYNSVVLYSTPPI
FLK-1 on PAE/FLK-1 cells, sequence (P35968 20-1356): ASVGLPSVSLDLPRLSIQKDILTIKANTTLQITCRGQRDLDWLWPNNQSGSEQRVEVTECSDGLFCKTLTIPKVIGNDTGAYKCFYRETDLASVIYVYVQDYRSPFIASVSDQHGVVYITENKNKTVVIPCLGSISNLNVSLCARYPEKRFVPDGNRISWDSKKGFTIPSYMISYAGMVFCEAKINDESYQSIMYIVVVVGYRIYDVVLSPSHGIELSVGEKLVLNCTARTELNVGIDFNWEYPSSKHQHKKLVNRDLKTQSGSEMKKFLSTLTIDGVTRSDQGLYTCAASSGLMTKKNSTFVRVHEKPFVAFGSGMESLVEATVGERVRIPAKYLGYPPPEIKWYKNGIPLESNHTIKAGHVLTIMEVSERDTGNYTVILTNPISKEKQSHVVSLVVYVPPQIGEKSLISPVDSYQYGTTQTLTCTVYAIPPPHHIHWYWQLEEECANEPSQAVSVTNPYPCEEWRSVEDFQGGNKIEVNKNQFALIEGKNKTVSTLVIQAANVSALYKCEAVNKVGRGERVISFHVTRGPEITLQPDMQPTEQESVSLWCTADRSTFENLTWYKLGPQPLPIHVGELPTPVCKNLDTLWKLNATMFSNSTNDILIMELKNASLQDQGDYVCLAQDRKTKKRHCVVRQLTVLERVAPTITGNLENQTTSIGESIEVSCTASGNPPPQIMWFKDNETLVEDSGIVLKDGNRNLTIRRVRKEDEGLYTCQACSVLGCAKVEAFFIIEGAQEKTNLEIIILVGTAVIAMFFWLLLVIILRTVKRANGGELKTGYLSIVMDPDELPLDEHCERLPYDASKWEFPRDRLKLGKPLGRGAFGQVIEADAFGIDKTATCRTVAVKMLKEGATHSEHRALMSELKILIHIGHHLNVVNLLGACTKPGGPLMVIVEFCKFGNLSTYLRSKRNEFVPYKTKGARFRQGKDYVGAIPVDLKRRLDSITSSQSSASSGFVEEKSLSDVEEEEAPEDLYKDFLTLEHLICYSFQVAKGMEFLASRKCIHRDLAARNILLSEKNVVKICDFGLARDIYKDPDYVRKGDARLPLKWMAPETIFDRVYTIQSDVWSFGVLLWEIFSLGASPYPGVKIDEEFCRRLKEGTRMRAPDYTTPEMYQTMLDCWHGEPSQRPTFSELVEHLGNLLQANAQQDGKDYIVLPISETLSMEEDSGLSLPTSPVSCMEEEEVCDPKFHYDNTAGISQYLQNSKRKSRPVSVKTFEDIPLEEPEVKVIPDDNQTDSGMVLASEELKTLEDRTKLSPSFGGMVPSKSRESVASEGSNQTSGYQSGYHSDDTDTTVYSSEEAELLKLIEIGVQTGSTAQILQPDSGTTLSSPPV
human kinase domain receptor (KDR, VEGFR-2) on cells (human), sequence (P35968 20-1356): as above
Flk-1 on murine brain endothelioma bEnd.3 cells (mouse), sequence (P35918 20-1345): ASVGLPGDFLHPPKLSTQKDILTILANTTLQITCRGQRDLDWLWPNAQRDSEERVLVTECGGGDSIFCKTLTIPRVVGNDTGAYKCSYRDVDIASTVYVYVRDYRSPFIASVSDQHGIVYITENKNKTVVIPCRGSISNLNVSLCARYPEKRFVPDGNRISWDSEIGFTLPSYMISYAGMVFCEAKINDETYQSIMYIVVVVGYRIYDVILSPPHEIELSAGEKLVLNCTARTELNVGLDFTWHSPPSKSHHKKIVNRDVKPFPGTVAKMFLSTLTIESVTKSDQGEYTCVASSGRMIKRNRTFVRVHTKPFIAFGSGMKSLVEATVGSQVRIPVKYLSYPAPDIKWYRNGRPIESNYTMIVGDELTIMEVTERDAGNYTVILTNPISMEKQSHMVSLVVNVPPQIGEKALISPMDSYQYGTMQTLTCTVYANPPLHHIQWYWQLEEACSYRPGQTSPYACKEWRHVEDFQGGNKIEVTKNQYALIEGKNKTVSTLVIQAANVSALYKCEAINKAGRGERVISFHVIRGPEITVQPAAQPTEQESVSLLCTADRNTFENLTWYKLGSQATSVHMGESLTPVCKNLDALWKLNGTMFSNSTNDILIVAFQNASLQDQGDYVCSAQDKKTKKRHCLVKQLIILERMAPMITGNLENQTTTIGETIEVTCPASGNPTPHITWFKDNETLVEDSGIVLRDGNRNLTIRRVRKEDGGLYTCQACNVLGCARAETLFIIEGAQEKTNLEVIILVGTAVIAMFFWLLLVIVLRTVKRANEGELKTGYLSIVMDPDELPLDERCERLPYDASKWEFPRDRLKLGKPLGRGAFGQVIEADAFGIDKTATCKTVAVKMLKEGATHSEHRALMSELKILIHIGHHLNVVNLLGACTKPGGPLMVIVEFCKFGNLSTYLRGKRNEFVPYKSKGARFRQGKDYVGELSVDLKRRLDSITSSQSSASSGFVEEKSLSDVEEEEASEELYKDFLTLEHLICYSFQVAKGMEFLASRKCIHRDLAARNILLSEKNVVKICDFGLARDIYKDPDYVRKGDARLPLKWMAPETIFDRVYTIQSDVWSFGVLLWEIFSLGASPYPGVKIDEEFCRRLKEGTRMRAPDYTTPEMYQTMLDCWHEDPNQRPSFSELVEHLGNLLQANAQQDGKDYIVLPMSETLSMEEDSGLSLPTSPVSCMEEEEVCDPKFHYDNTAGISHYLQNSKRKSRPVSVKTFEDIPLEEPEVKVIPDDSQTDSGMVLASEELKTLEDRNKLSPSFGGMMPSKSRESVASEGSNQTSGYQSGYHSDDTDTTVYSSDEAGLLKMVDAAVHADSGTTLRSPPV

For “VEGF121/rGel fusion toxin (VEGF121 at the N-terminus, G4S tether, recombinant gelonin) (from UniProt P15692 27-147; P33186 47-297)”, the IC50 for VEGF121/rGel (nM), cytotoxicity, PAE/FLT-1 (confluent) [1] was over 5000 nM, the IC50 for VEGF121/rGel (nM), cytotoxicity, PAE/FLT-1 (log phase) [1] was 300 nM and the Targeting index, PAE/FLT-1 (confluent) [1] was under 2. For the same molecule, the Targeting index, PAE/FLT-1 (log phase) [1] was 1, the dose inhibiting tube formation of PAE/Flt-1 cells on Matrigel by 50% [1] was 100 nM and the IC50, cytotoxicity on bone marrow-derived monocytes [2] was 10 nM. The IC50, cytotoxicity on dividing RAW cells [2] was 40 nM, the IC50 for VEGF121/rGel (nM), cytotoxicity, ABAE (log phase) [3] was 0.059 nM and the Targeting index, ABAE (log phase) [3] was 8.9. It also gave an IC50, cytotoxicity on PAE/FLK-1 cells, XTT, 72 h (FLK-1 on PAE/FLK-1 cells) of 1 nM, an IC50, cytotoxicity on log-phase PAE/KDR cells, 72 h (bladder tumor comparison experiment) [4] of 1 nM and an IC50 for VEGF121/rGel (nM), cytotoxicity, HUVEC (hypoxia) [4] of 700 nM. The IC50 for VEGF121/rGel (nM), cytotoxicity, HUVEC (normoxia) [4] was 800 nM, the IC50 for VEGF121/rGel (nM), cytotoxicity, PAE/KDR (confluent) [4] was 30 nM and the IC50 for VEGF121/rGel (nM), cytotoxicity, PAE/KDR (log phase), 72 h [4] was 0.5 nM. For the same molecule, the Targeting index (ratio of IC50 of rGel to VEGF121/rGel), PAE/KDR (log phase) [4] was 600, the Targeting index, HUVEC (hypoxia) [4] was 1 and the Targeting index, HUVEC (normoxia) [4] was 1. For the same molecule, the Targeting index, PAE/KDR (confluent) [4] was 167, the dose inhibiting tube formation of PAE/KDR cells on Matrigel by 50% [4] was 1 nM and the IC50 for VEGF121/rGel (nM), cytotoxicity, bEnd3 (log phase) [5] was 1 nM. It also gave a Targeting index, bEnd3 (log phase) [5] of 100.

Work on “GrB/VEGF121 fusion protein (mature granzyme B, G4S tether, VEGF121) (from UniProt P10144 21-247; P15692 27-147)” yielded a clonogenic (colony-forming) assay on PAE/FLT-1 cells [1] of over 100 nM, a cytotoxicity on log-phase PAE/FLT-1 cells, XTT, 72 h [1] of over 200 nM and an IC50, clonogenic (colony-forming) assay on PAE/FLK-1 cells (FLK-1 on PAE/FLK-1 cells) of 20 nM. The IC50, cytotoxicity on log-phase PAE/FLK-1 cells, XTT, 72 h (FLK-1 on PAE/FLK-1 cells) was 10 nM.

B1: native human VEGF121 (ligand)
chain: APMAEGGGQNHHEVVKFMDVYQRSYCHPIETLVDIFQEYPDEIEYIFKPSCVPLMRCGGCCNDEGLECVPTEESNITMQIMRIKPHQGQHIGEMSFLQHNKCECRPKKDRARQEKCDKPRR
notes: mature; also called free VEGF121
B1: binds [6].
